pIC50: −log10 of the molar value.
Each sequence was assayed against HLA-A*02:01 (assay: IEDB peptide-MHC binding, purified MHC/competitive/radioactivity; ≥ and ≤ were set here for values at or beyond the usual limits of such assays). Conditions: source organism: Trypanosoma cruzi.

Point of comparison: FANHDFTLV, pIC50 7.00. Against it:
- ELLRPTTLV — 1.38 log units lower, 5.62
- FANNKFTLV — within 0.2 log units, 6.94
- FANYKFTLV — 0.31 log units higher, 7.31
- FANYNFTLL — 1.18 log units lower, 5.82
- FANYNFTLV — 2.33 log units higher, 9.33
- FLSHDFTLV — 2.34 log units higher, 9.34
- FLSHNFTLVF — 2.21 log units higher, 9.21
- FVDYNFSLV — 1.96 log units higher, 8.96
- FVNHRFTLV — 0.48 log units lower, 6.52
- FVNYNFTLV — 2.60 log units higher, 9.60
- FVSCDFTIV — 0.52 log units higher, 7.52
- GLLPSLLLLL — 1.51 log units higher, 8.51
- IANYNFTLV — 2.47 log units lower, 4.53
- LLGLWGLATA — 0.62 log units higher, 7.62
- RLLPSLLLLL — 2.10 log units higher, 9.10
- RVSRPTTVV — 1.40 log units lower, 5.60
- SLSHYFTLVF — 1.80 log units higher, 8.80

From the Immune Epitope Database (IEDB)
